Here are results for two molecules from patent publication US20200087367A1 (ACCELERON PHARMA, published 2020).

For one assay, the target named is T1, ActRIIA-mFc (human, UniProt P27037 21-135).
T1 construct: not shown: linker and mouse Fc domain
The assay is described as follows: SPR (Biacore), ligand amine-coupled to chip, Fc fusion injected. For orientation: Surface plasmon resonance follows binding to a sensor surface in real time, without labels.

The target in the next assay is T2, ActRIIB-mFc (human, UniProt Q13705 20-134).
T2 sequence: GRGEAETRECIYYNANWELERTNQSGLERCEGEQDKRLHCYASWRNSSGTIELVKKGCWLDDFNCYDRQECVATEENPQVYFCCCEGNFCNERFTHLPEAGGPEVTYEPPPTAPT
The assay is described as follows: SPR (Biacore), ligand amine-coupled to CM5 chip, Fc fusion injected.

The target of a further assay is T3, hENG(26-329)-hFc (human, UniProt P17813 26-329).
T3 construct: HEK 293, purified; not shown: linker and human IgG1 Fc domain
T3 sequence: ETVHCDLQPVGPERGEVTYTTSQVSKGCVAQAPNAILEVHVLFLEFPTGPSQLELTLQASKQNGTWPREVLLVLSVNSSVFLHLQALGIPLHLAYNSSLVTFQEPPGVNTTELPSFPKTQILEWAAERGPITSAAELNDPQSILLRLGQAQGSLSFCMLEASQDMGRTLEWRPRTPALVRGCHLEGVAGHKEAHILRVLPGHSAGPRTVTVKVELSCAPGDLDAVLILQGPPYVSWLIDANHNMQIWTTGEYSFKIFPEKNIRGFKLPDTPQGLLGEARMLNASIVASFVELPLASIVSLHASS
The assay is described as follows: SPR, captured hENG-hFc, soluble BMP9; '-' = Binding undetectable. As to the method:
(§1) SPR methodology was used to screen these hENG-hFc protein variants for high-affinity binding to human BMP9 and BMP10. In these experiments, captured hENG-hFc proteins were exposed to soluble BMP9 or BMP10 at 100 nM each.

The target of the next assay is T4, hENG(26-257)-hFc (human, UniProt P17813 26-257).
T4 construct: HEK 293, purified; not shown: linker and human IgG1 Fc domain
T4 sequence: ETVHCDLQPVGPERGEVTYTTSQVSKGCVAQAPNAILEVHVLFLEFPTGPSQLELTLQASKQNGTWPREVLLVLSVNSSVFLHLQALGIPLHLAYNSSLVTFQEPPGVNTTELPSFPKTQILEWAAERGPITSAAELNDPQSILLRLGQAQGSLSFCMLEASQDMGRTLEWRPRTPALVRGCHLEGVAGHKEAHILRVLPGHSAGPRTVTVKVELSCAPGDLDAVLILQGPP
The assay is described as above. As to the method:
as §1

A further assay has as its target T5, hENG(458-586)-hFc (human, UniProt P17813 458-586).
T5 construct: Expressed in COS cells, not purified; not shown: linker and human IgG1 Fc domain
T5 sequence: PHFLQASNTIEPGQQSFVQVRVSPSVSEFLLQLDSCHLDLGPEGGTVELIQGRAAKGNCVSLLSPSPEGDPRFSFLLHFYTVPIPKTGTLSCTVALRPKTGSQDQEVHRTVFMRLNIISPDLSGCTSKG
Described as above. As to the method:
as §1

A further assay deals with T6, hENG(129-346)-hFc (human, UniProt P17813 129-346).
T6 construct: HEK 293, purified; not shown: linker and human IgG1 Fc domain
T6 sequence: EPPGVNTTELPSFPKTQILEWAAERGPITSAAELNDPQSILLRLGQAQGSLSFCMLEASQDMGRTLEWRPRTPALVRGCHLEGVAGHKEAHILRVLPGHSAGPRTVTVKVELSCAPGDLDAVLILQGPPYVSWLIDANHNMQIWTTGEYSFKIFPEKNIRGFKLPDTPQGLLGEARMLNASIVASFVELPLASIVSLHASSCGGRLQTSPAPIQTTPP
The assay is described as above. As to the method: as §1

Another assay addresses T7, hENG(133-346)-hFc (human, UniProt P17813 133-346).
T7 construct: HEK 293, purified; not shown: linker and human IgG1 Fc domain
T7 sequence: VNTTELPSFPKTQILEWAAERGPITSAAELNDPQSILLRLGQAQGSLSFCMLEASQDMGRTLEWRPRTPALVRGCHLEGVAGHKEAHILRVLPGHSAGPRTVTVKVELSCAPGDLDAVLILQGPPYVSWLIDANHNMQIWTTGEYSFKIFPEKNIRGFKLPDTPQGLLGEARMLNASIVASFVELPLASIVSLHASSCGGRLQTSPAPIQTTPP
The assay is described as above. As to the method:
as §1

The next assay concerns the target T8, BMP10pro(22-315)-mFc (human, UniProt O95393 22-315).
T8 construct: also called mouse Fc equivalent construct; not shown: optional linker and mouse immunoglobulin G1 Fc domain
T8 sequence: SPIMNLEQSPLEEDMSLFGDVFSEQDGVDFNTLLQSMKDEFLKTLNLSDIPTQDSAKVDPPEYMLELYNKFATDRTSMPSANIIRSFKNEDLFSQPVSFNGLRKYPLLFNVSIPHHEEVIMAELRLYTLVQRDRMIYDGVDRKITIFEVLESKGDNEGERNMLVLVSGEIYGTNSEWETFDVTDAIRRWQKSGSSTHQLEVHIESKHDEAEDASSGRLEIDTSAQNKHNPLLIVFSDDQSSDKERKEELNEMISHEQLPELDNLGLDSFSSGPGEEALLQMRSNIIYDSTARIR
The assay is described as follows: SPR (Biacore), BMP10pro-Fc captured by anti-Fc antibody, ligand injected. As to the method: (§2) The BMP10pro-Fc proteins were separately was captured onto the system using an anti-Fc antibody, and ligands were injected and allowed to flow over the captured receptor protein. […] The mouse Fc equivalent constructs behaved similarly. […] The affinity of BMP10pro(22-315)-hFc for BMP3b was not assessed.

The next assay concerns the target T9, BMP10pro(22-312)-mFc (human, UniProt O95393 22-312).
T9 construct: also called mouse Fc equivalent construct; not shown: optional linker and mouse immunoglobulin G1 Fc domain
T9 sequence: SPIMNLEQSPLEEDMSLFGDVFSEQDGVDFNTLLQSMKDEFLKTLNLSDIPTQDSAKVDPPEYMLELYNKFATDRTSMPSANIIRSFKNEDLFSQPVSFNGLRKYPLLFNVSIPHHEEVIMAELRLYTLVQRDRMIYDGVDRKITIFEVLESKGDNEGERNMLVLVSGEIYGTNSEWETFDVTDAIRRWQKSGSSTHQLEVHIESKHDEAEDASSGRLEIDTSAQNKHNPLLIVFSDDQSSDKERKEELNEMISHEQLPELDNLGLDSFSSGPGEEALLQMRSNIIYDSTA
Described as above. The method, then:
as §2

T1 sequence (P27037 21-135): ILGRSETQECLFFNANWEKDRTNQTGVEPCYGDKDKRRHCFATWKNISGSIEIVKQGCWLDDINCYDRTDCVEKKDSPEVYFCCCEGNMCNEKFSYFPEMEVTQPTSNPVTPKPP

B1: BMP9 (ligand, human, UniProt Q9UK05 320-429, looked up)
chain: SAGAGSHCQKTSLRVNFEDIGWDSWIIAPKEYEAYECKGGCFFPLADDVTPTKHAIVQTLVHLKFPTKVGKACCVPTKLSPISVLYKDDMGVPTLKYHYEGMSVAECGCR
notes: also called hBMP-9; hBMP9
For the molecule B1, the binding result is recorded as “binds” with ActRIIA-mFc; “binds” with ActRIIB-mFc; “no binding (tested: 100 nM)” with hENG(26-329)-hFc; “no binding (tested: 100 nM)” with hENG(26-257)-hFc; “no binding (tested: 100 nM)” with hENG(458-586)-hFc; “no binding (tested: 100 nM)” in the assay with hENG(129-346)-hFc. Also, the binding result in the assay with hENG(133-346)-hFc is “no binding (tested: 100 nM)”; with BMP10pro(22-315)-mFc it was “binds”; with BMP10pro(22-312)-mFc, “binds”.

B2: BMP10 (ligand)
chain: NAKGNYCKRTPLYIDFKEIGWDSWIIAPPGYEAYECRGVCNYPLAEHLTPTKHAIIQALVHLKNSQKASKACCVPTKLEPISILYLDKGVVTYKFKYEGMAVSECGCR
notes: also called hBMP-10; hBMP10
With B2, the binding result with ActRIIA-mFc, in the assay with ActRIIB-mFc, with BMP10pro(22-315)-mFc and with BMP10pro(22-312)-mFc was “binds” each time.
